This is an account of results in the supplement of paper PMC7877785.

This series is described as follows: self-splicing fitness, log relative to wild type (ln ratio); higher = more splicing; Tetrahymena group I intron in knt gene, E. coli kanamycin selection, DiMSum; sequences stand for … in CUCUCU…GGAGGGAAAAGUUAUCAGGCAUGCACCUGGUAGCUAGUCUUUAAACCAAUAGAUUGCAUCGGUUUAAAAGGCAAGACCGUCAAAUUGCGGGAAAGGGGUCAACAGCCGUUCAGUACCAAGUCUCAGGGGAAACUUUGAGAUGGCCUUGCAAAGGGUAUGGUAAUAAGCUGACGGACAUGGUCCUAACCACGCAGCCAAGUCCUAAGUCAACAGAUCUUCUGUUGAUAUGGAUGCAGUUCACAGACUAAAUGUCGGUCGGGGAAGAUGUAUUCUUCUCAUAAGAUAUAGUCGGACCUCUCCUUAAUGGGAGCUAGCGGAUGAAGUGAUGCAACACUGGAGCCGCUGGGAACUAAUUUGUAUGCGAAAGUAUAUUGAUUAGUUUUGGAGUACUCGUGGUCG
A digest of the protocol: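 Fitness was computed with DiMSum as the error-weighted combination of replicate fold changes, kanamycin versus none, each normalised to wild type. The library randomised all eight intron nucleotides of the P1ex region, with the intron placed in the knt kanamycin-resistance gene on pET-22b(+) in E. coli BL21(DE3). Six replicate transformations were grown overnight at 37°C or 30°C on LB agar with or without 25 μg/mL kanamycin, plus 100 μg/mL carbenicillin, 50 μM IPTG and 0.2% rhamnose. Pooled colonies were amplicon-sequenced on an Illumina HiSeq 2500.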

± gives the uncertainty stated by the source.

Take GAAUAGCAAUAUUACGCUGC: the “self-splicing fitness (ln)” value by setting is: (30 °C) -3.36 ± 0.45; (37 °C) -3.32 ± 0.32. On the same counts, the results for GAAUAGCAAUAUUACGGAAA are -1.98 ± 0.16 and -1.31 ± 0.14. On the same counts, the results for GAAUAGCAAUAUUACGGAAG are -4.14 ± 0.39 and -2.1 ± 0.25.

For the sequence GAAUAGCAAUAUUACGGACA, the “self-splicing fitness (ln)” value was -0.557 ± 0.12 (30 °C) and -0.0249 ± 0.16 (37 °C).

In the case of GAAUAGCAAUAUUACGGCAG, the “self-splicing fitness (ln)” value by setting is: (30 °C) -3.67 ± 0.39; (37 °C) -1.93 ± 0.25. On the same counts, the results for GAAUAGCAAUAUUACGGCGU are -0.554 ± 0.15 and 0.178 ± 0.16. The corresponding values for GAAUAGCAAUAUUACGGCUG are -0.443 ± 0.083 and -0.941 ± 0.1.

For the sequence GAAUAGCAAUAUUACGGGUA, the “self-splicing fitness (ln)” value runs as follows: (30 °C) -2.2 ± 0.19; (37 °C) -1.2 ± 0.14. On the same counts, the results for GAAUAGCAAUAUUACGGUAA are -2.25 ± 0.16 and -0.943 ± 0.13. The corresponding values for GAAUAGCAAUAUUACGGUAC are -1.1 ± 0.13 and -0.802 ± 0.2.

GAAUAGCAAUAUUACGGUAG: the “self-splicing fitness (ln)” value (30 °C) is -2.88 ± 0.12 and the “self-splicing fitness (ln)” value (37 °C) is -2.22 ± 0.16. On the same counts, the results for GAAUAGCAAUAUUACGGUCG are -0.153 ± 0.098 and -0.479 ± 0.12. The corresponding values for GAAUAGCAAUAUUACGUAAU are -2.99 ± 0.13 and -0.789 ± 0.11.

Consider GAAUAGCAAUAUUACGUACC, for which the “self-splicing fitness (ln)” value (30 °C) is -0.757 ± 0.19 and the “self-splicing fitness (ln)” value (37 °C) was -0.37 ± 0.3. The corresponding values for GAAUAGCAAUAUUACGUCCA are -1.28 ± 0.1 and -0.00949 ± 0.13. On the same counts, the results for GAAUAGCAAUAUUACGUCCU are -1.05 ± 0.11 and 0.425 ± 0.15. The corresponding values for GAAUAGCAAUAUUACGUCGC are -0.78 ± 0.12 and -0.38 ± 0.17. In the case of GAAUAGCAAUAUUACGUCGG, the “self-splicing fitness (ln)” value runs as follows: (30 °C) -3.21 ± 0.12; (37 °C) -3.19 ± 0.2. As to GAAUAGCAAUAUUACGUUCC, the “self-splicing fitness (ln)” value (30 °C) is -3.17 ± 0.32.

Turning to GACAAGCAAUAUUACGAAGA, the “self-splicing fitness (ln)” value is -2.94 ± 0.17 (30 °C) and -1.19 ± 0.13 (37 °C).

Consider GACAAGCAAUAUUACGACAU, for which the “self-splicing fitness (ln)” value is -0.624 ± 0.011 (30 °C) and -0.191 ± 0.032 (37 °C). On the same counts, the results for GACAAGCAAUAUUACGAGUC are -1.85 ± 0.15 and -2.72 ± 0.28. On the same counts, the results for GACAAGCAAUAUUACGAUUU are -0.222 ± 0.063 and 0.406 ± 0.081. GACAAGCAAUAUUACGCAAC: the “self-splicing fitness (ln)” value (30 °C) was -2.72 ± 0.14 and the “self-splicing fitness (ln)” value (37 °C) was -2.15 ± 0.24.

Regarding GACAAGCAAUAUUACGCACU, the “self-splicing fitness (ln)” value reads like this: (30 °C) 0.582 ± 0.11; (37 °C) -0.112 ± 0.12. As for GACAAGCAAUAUUACGCGCU, the “self-splicing fitness (ln)” value was -1.29 ± 0.058 (30 °C) and -0.594 ± 0.073 (37 °C). The corresponding values for GACAAGCAAUAUUACGGAAG are -2.75 ± 0.21 and -3.29 ± 0.37. The corresponding values for GACAAGCAAUAUUACGGCCG are -0.239 ± 0.14 and -0.53 ± 0.22. The corresponding values for GACAAGCAAUAUUACGGGAA are -2.12 ± 0.097 and -1.36 ± 0.12. As to GACAAGCAAUAUUACGGUAU, the “self-splicing fitness (ln)” value is, setting by setting: (30 °C) -1.29 ± 0.073; (37 °C) -1.17 ± 0.087. On the same counts, the results for GACAAGCAAUAUUACGGUCA are -0.777 ± 0.13 and -0.735 ± 0.12.

Take GACAAGCAAUAUUACGUACC: the “self-splicing fitness (ln)” value (30 °C) is -1.71 ± 0.13 and the “self-splicing fitness (ln)” value (37 °C) was -1.11 ± 0.12. As to GACAAGCAAUAUUACGUAGG, the “self-splicing fitness (ln)” value runs as follows: (30 °C) -3.07 ± 0.11; (37 °C) -2.22 ± 0.13. The corresponding values for GACAAGCAAUAUUACGUCAU are -3.05 ± 0.15 and -2.62 ± 0.16. On the same counts, the results for GACAAGCAAUAUUACGUGAU are -1.77 ± 0.071 and -1.17 ± 0.09. On the same counts, the results for GACAAGCAAUAUUACGUUUU are -2.69 ± 0.076 and -1.97 ± 0.1. For the sequence GACCAGCAAUAUUACGAACC, the “self-splicing fitness (ln)” value reads like this: (30 °C) -0.191 ± 0.09; (37 °C) 0.0652 ± 0.092. The corresponding values for GACCAGCAAUAUUACGAACG are -0.447 ± 0.075 and -0.466 ± 0.11. On the same counts, the results for GACCAGCAAUAUUACGAACU are 0.271 ± 0.062 and -0.0101 ± 0.082. As for GACCAGCAAUAUUACGAAGU, the “self-splicing fitness (ln)” value runs as follows: (30 °C) -1.45 ± 0.09; (37 °C) -0.269 ± 0.1. GACCAGCAAUAUUACGAGCC: the “self-splicing fitness (ln)” value reads like this: (30 °C) -0.222 ± 0.093; (37 °C) 0.0644 ± 0.14. The corresponding values for GACCAGCAAUAUUACGAUGC are -0.38 ± 0.059 and -0.185 ± 0.072. The corresponding values for GACCAGCAAUAUUACGAUUU are 0.0538 ± 0.046 and 0.446 ± 0.065. As for GACCAGCAAUAUUACGCGAA, the “self-splicing fitness (ln)” value by setting is: (30 °C) -0.483 ± 0.059; (37 °C) -0.138 ± 0.083. The corresponding values for GACCAGCAAUAUUACGCGCG are -0.501 ± 0.061 and 0.0713 ± 0.078.

GACCAGCAAUAUUACGCGCU: the “self-splicing fitness (ln)” value is, setting by setting: (30 °C) -1.68 ± 0.12; (37 °C) -0.412 ± 0.12. In the case of GACCAGCAAUAUUACGCGGC, the “self-splicing fitness (ln)” value is, setting by setting: (30 °C) -3 ± 0.25; (37 °C) -2.3 ± 0.29. GACCAGCAAUAUUACGCGGU: the “self-splicing fitness (ln)” value (30 °C) is -4.81 ± 0.39 and the “self-splicing fitness (ln)” value (37 °C) is -3.27 ± 0.27. On the same counts, the results for GACCAGCAAUAUUACGCGUU are -3.49 ± 0.12 and -2.54 ± 0.14. GACCAGCAAUAUUACGCUAC: the “self-splicing fitness (ln)” value (37 °C) is -2.47 ± 0.3. For GACCAGCAAUAUUACGGAAA, the “self-splicing fitness (ln)” value (30 °C) was -0.538 ± 0.086 and the “self-splicing fitness (ln)” value (37 °C) is 0.437 ± 0.096. The corresponding values for GACCAGCAAUAUUACGGACA are -0.345 ± 0.078 and -0.496 ± 0.081.

Regarding GACCAGCAAUAUUACGGAUC, the “self-splicing fitness (ln)” value is -1.45 ± 0.095 (30 °C) and -0.489 ± 0.12 (37 °C). The corresponding values for GACCAGCAAUAUUACGGAUU are -0.723 ± 0.049 and -0.029 ± 0.062. The corresponding values for GACCAGCAAUAUUACGGGGA are -0.82 ± 0.074 and -0.839 ± 0.087. In the case of GACCAGCAAUAUUACGUAAU, the “self-splicing fitness (ln)” value (30 °C) is -0.385 ± 0.058 and the “self-splicing fitness (ln)” value (37 °C) is -0.075 ± 0.07. Regarding GACCAGCAAUAUUACGUACC, the “self-splicing fitness (ln)” value reads like this: (30 °C) -0.415 ± 0.08; (37 °C) -0.106 ± 0.098. On the same counts, the results for GACCAGCAAUAUUACGUCAC are -4.24 ± 0.27 and -2.54 ± 0.2. As to GACCAGCAAUAUUACGUUCU, the “self-splicing fitness (ln)” value by setting is: (30 °C) -0.569 ± 0.078; (37 °C) -0.975 ± 0.12. The corresponding values for GACGAGCAAUAUUACGAGCA are -3.31 ± 0.35 and -2.65 ± 0.3.

As to GACGAGCAAUAUUACGAUGA, the “self-splicing fitness (ln)” value was -4.01 ± 0.39 (30 °C) and -2.14 ± 0.2 (37 °C). The corresponding values for GACGAGCAAUAUUACGCAUG are -3.07 ± 0.25 and -1.61 ± 0.19.

For the sequence GACGAGCAAUAUUACGCCAU, the “self-splicing fitness (ln)” value (30 °C) is -2.23 ± 0.49. Still for that read-out and setting: the figure for GACGAGCAAUAUUACGCGUC is -2.57 ± 0.5. Consider GACGAGCAAUAUUACGCUAC, for which the “self-splicing fitness (ln)” value reads like this: (30 °C) -2.62 ± 0.18; (37 °C) -2.54 ± 0.26. The corresponding values for GACGAGCAAUAUUACGCUCU are -3.92 ± 0.27 and -1.64 ± 0.32. On the same counts, the results for GACGAGCAAUAUUACGCUUG are -4 ± 0.26 and -1.27 ± 0.16.

As for GACGAGCAAUAUUACGGACG, the “self-splicing fitness (ln)” value was -1.64 ± 0.21 (30 °C) and -2.33 ± 0.31 (37 °C). On the same counts, the results for GACGAGCAAUAUUACGGAGG are -3.68 ± 0.26 and -2.97 ± 0.35.

On to GACGAGCAAUAUUACGGAGU, for which the “self-splicing fitness (ln)” value (30 °C) was -3.71 ± 0.35 and the “self-splicing fitness (ln)” value (37 °C) was -2.49 ± 0.24.

GACGAGCAAUAUUACGGCAC: the “self-splicing fitness (ln)” value was -2.53 ± 0.18 (30 °C) and -1.62 ± 0.16 (37 °C). GACGAGCAAUAUUACGGGAC: the “self-splicing fitness (ln)” value (30 °C) is -3.94 ± 0.31 and the “self-splicing fitness (ln)” value (37 °C) was -2.23 ± 0.46. On the same counts, the results for GACGAGCAAUAUUACGGGCG are -3.8 ± 0.27 and -1.08 ± 0.17. On the same counts, the results for GACGAGCAAUAUUACGGGUU are -3.77 ± 0.18 and -2.75 ± 0.21. As for GACGAGCAAUAUUACGUACG, the “self-splicing fitness (ln)” value by setting is: (30 °C) -2.63 ± 0.29; (37 °C) -2.17 ± 0.33. GACGAGCAAUAUUACGUGGC: the “self-splicing fitness (ln)” value reads like this: (30 °C) -0.192 ± 0.41; (37 °C) -1.57 ± 0.22.
